Laboratory results from article PMC6138676, “Skeletal Muscle Dystrophy mutant of lamin A alters the structure and dynamics of the Ig fold domain” (Scientific Reports, 2018).

Target: the molecule itself
Assay: SEC-MALS; 3 mg/ml protein; Superdex 200 Increase 10/300 equilibrated in 25 mM Tris-HCl pH 8.5, 250 mM NaCl; 20 °C; 30 µL injected, 0.6 mL/min

B1: Human lamin A Ig (428-552) (domain or fragment, UniProt P02545 428-552, looked up)
chain: SSFSQHARTSGRVAVEEVDEEGKFVRLRNKSNEDQSMGNWQIKRQNGDDPLLTYRFPPKFTLKAGQVVTIWAAGAGATHSPPTDLVWKAQNTWGCGNSLRTALINSTGEEVAMRKLVRSVTVVED
notes: Ig fold domain of human lamin A, residues 428-552, cloned into pQE-80L between BamHI and KpnI; For the NMR experiments the protein was 13C,15N-labelled; also called wild type Ig; Ig fold domain of lamin A; source: E. coli BL21 (DE3) pLysS, purified (His-Trap column)
stoichiometry N: 2
